Data: US20150258192A1, “COMPOSITIONS AND METHODS FOR PREVENTING OR TREATING CHRONIC LUNG ALLOGRAFT DYSFUNCTION (CLAD) AND IDIOPATHIC PULMONARY FIBROSIS (IPF)” (priority 2014, published 2015)
No end group written: not given here.

Columns and labels:
Experiment in all cases: Kinase Profiling Assay
Format in all cases: biochemical
Details in all cases: peptide 100 μM
[1] = molecular target: T1, Met(h) (Homo sapiens, UniProt P08581)
T1 construct: purchased Millipore
Procedure, shortened: (§1)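 Measured twice per kinase, activity in presence of MK2 inhibitory peptide was calculated against a 100% activity control after radiometric phosphorylation of a cationic substrate, anionic filter capture and scintillation counting; one of 266 human kinases profiled for specificity.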

[2] = molecular target: T2, GRK7(h) (Homo sapiens, UniProt Q8WTQ7)
T2 construct: purchased Millipore
T2 sequence (Q8WTQ7 1-553): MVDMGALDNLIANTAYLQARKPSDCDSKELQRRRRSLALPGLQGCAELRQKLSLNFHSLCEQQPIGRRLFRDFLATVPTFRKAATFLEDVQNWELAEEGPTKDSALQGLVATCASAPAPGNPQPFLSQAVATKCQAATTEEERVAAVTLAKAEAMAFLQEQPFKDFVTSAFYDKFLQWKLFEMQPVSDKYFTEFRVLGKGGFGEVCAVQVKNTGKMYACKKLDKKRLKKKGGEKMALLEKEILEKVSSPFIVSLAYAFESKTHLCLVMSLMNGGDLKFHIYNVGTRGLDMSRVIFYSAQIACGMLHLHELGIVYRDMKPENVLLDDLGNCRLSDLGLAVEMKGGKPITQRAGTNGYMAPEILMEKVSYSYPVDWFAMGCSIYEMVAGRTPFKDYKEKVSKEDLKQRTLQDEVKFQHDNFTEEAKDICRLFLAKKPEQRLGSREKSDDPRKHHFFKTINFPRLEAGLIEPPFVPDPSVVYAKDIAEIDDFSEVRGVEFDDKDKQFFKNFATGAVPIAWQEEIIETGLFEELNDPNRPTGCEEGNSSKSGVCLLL
Procedure, shortened: as §1

[3] = molecular target: T3, BrSK1(h) (Homo sapiens, UniProt Q8TDC3)
T3 sequence (Q8TDC3 1-778): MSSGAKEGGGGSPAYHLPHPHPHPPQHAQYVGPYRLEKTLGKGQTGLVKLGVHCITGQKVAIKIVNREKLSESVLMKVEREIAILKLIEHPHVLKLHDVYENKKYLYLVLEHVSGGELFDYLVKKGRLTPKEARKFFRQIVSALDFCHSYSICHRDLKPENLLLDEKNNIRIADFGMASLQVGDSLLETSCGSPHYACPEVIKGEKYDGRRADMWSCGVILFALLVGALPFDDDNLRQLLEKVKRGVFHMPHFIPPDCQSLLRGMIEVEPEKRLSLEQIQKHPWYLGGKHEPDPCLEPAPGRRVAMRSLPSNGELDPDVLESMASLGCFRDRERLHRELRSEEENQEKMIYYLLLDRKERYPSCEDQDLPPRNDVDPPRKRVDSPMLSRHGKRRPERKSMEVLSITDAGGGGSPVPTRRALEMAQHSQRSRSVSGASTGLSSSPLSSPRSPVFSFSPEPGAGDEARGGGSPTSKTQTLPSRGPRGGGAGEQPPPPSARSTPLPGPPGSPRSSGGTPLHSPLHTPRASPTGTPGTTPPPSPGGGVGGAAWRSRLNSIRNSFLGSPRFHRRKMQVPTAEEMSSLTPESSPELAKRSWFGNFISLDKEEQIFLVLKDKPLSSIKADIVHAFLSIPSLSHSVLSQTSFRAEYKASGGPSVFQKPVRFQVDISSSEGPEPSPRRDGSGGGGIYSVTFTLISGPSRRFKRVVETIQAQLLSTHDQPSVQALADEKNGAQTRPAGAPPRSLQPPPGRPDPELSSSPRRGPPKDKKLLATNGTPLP
Procedure, shortened: as §1

[4] = molecular target: ROCK-II(h) (Homo sapiens, UniProt O75116)
Chain of ROCK-II(h) (O75116 whole entry): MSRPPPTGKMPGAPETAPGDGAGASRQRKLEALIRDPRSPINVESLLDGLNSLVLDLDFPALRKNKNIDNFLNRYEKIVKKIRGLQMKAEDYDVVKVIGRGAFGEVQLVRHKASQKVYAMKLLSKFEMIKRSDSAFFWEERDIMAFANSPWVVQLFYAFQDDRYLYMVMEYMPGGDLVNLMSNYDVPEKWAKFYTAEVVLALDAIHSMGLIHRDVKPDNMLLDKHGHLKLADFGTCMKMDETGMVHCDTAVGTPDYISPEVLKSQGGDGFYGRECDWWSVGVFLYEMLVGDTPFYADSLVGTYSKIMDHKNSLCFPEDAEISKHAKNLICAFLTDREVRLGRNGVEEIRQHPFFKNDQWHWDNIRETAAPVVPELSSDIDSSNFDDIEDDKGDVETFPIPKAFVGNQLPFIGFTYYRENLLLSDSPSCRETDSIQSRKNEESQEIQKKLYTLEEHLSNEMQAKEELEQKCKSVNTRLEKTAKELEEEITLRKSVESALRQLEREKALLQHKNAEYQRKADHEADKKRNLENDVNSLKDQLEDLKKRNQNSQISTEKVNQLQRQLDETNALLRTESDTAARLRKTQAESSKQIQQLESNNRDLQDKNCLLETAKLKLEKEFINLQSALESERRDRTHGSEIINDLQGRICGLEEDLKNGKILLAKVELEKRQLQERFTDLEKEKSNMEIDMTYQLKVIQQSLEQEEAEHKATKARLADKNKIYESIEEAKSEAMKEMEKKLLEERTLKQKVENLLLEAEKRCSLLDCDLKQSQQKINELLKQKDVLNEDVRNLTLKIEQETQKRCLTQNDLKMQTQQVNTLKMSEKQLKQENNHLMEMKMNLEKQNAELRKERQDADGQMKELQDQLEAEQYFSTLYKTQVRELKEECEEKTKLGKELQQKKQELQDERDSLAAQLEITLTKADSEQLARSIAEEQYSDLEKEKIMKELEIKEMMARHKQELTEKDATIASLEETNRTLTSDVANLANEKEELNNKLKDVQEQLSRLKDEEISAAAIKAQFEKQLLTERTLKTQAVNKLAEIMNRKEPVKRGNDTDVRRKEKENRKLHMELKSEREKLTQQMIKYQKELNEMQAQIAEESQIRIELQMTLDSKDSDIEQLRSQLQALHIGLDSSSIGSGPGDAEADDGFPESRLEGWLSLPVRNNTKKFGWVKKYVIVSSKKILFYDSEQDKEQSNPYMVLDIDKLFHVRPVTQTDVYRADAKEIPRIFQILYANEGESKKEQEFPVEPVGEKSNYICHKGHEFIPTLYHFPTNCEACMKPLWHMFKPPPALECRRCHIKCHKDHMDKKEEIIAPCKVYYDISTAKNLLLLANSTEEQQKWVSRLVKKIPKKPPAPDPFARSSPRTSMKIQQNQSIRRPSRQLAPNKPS
Procedure, shortened: as §1

[5] = molecular target: T4, DRAK1(h) (Homo sapiens, UniProt Q9UEE5)
T4 sequence (Q9UEE5 1-414): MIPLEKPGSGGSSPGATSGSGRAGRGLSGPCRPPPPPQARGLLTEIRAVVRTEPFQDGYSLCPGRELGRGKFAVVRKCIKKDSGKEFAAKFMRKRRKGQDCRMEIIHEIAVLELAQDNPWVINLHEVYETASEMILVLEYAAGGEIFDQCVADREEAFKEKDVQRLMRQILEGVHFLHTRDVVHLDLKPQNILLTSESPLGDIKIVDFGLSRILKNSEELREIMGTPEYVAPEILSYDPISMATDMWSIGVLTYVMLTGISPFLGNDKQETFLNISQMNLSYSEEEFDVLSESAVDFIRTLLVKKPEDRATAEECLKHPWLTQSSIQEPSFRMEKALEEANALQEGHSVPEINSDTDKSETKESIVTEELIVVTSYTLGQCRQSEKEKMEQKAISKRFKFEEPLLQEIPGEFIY
Procedure, shortened: as §1

T1 sequence (P08581 25-1390): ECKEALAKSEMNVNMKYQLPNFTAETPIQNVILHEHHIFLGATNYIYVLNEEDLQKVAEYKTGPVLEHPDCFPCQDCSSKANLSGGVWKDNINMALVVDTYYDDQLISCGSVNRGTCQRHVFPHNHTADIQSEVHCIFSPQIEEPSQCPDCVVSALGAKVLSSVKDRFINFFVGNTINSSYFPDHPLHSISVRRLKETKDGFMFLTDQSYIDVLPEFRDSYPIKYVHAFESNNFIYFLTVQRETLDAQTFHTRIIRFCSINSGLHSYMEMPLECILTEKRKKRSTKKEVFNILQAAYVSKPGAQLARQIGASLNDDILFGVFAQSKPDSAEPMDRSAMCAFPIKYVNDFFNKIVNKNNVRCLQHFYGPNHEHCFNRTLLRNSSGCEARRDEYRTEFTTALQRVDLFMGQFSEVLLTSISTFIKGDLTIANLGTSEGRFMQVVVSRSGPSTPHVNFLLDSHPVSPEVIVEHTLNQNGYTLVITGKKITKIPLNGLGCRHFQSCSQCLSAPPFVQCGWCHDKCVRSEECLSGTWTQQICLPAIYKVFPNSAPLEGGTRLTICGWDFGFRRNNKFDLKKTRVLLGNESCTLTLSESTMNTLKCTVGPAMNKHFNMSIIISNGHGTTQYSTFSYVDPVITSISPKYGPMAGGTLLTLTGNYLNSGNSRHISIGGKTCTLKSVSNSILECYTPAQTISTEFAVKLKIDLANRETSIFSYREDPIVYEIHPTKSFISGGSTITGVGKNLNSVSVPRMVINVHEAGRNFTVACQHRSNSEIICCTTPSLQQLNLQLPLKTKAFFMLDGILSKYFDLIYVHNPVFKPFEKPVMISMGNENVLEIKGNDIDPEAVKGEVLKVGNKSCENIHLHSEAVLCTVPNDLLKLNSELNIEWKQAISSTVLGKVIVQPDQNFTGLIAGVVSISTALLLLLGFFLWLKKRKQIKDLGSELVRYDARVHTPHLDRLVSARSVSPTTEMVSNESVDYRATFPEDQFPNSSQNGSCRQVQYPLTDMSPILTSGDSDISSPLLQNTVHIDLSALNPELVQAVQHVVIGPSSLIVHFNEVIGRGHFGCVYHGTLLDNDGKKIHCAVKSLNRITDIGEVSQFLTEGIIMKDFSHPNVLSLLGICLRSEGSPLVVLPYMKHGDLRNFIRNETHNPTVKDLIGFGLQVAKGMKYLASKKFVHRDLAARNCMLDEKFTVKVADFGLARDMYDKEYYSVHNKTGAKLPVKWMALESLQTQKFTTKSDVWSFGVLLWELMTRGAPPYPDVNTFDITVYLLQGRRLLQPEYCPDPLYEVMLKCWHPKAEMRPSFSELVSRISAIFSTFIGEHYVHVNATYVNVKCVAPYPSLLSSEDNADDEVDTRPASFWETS

Sequence | % activity [1] [%] | % activity [2] [%] | % activity [3] [%] | % activity [4] [%] | % activity [5] [%]
FAKLAARLYRKALARQLGVAA [MMI-0300] | 65 | 122 | 67 | 74 | 14
HRRIKAWLKKIKALARQLGVAA (Mammal) [MMI-0500] | 27 | 93 | 72 | 2 | 8
KAFAKLAARLYRKALARQLGVAA [MMI-0400] | 62 | 100 | 76 | 77 | 14
YARAAARQARAKALARQLGVAA [MMI-0100] | – | – | 100 | – | 47
YARAAARQARAKALNRQLGVA (Mammal) [MMI-0200] | 71 | 124 | 93 | 85 | 34
